According to the supplement of paper PMC9112550, “Optimization of the antimicrobial peptide Bac7 by deep mutational scanning” (BMC Biology, 2022):

System: Escherichia coli TOP10
Assay: shrunken log2 fold change of peptide-encoding DNA abundance (4.5 h post-induction vs induction); higher = less antimicrobial activity (less host growth inhibition)
Details: time post-induction: 4.5 h; library: site-saturation at positions 5, 18, 19, 20
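Note: peptides expressed intracellularly from a pBAD plasmid library in pooled LB shake-flask culture, induced with 0.3% L-arabinose, DNA abundance read by NGS, three biological replicates, DESeq2 with apeglm shrinkage.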

| Sequence | shrunken log2 fold change |
| --- | --- |
| RRIRIRPPRLPRPRPRPCSGPRP | -0.852 |
| RRIRIRPPRLPRPRPRPCSIPRP | -0.012 |
| RRIRIRPPRLPRPRPRPCTPPRP | -0.719 |
| RRIRIRPPRLPRPRPRPCVKPRP | -0.828 |
| RRIRIRPPRLPRPRPRPCVTPRP | -0.22 |
| RRIRIRPPRLPRPRPRPCVVPRP | -0.00586 |
| RRIRIRPPRLPRPRPRPCWDPRP | -0.0479 |
| RRIRIRPPRLPRPRPRPCYFPRP | -0.906 |
| RRIRIRPPRLPRPRPRPCYRPRP | -0.44 |
| RRIRIRPPRLPRPRPRPDAYPRP | -0.0729 |
| RRIRIRPPRLPRPRPRPDCYPRP | -0.226 |
| RRIRIRPPRLPRPRPRPDDGPRP | -0.184 |
| RRIRIRPPRLPRPRPRPDEDPRP | -0.00875 |
| RRIRIRPPRLPRPRPRPDEEPRP | -0.00176 |
| RRIRIRPPRLPRPRPRPDEHPRP | -0.272 |
| RRIRIRPPRLPRPRPRPDEIPRP | 0.1 |
| RRIRIRPPRLPRPRPRPDEMPRP | -0.15 |
| RRIRIRPPRLPRPRPRPDEQPRP | 0.0601 |
| RRIRIRPPRLPRPRPRPDESPRP | -0.172 |
| RRIRIRPPRLPRPRPRPDFEPRP | -0.39 |
| RRIRIRPPRLPRPRPRPDFKPRP | 3.01 |
| RRIRIRPPRLPRPRPRPDFPPRP | 0.058 |
| RRIRIRPPRLPRPRPRPDHCPRP | -0.0229 |
| RRIRIRPPRLPRPRPRPDIEPRP | -0.185 |
| RRIRIRPPRLPRPRPRPDNQPRP | -1.03 |

| Sequence | shrunken log2 fold change |
| --- | --- |
| RRIRIRPPRLPRPRPRPDNWPRP | -0.128 |
| RRIRIRPPRLPRPRPRPDNYPRP | -0.199 |
| RRIRIRPPRLPRPRPRPDPTPRP | -0.0575 |
| RRIRIRPPRLPRPRPRPDQSPRP | -0.138 |
| RRIRIRPPRLPRPRPRPDRAPRP | -0.169 |
| RRIRIRPPRLPRPRPRPDRGPRP | -0.0332 |
| RRIRIRPPRLPRPRPRPDRQPRP | 0.0357 |
| RRIRIRPPRLPRPRPRPDSHPRP | -0.379 |
| RRIRIRPPRLPRPRPRPDSYPRP | 0.072 |
| RRIRIRPPRLPRPRPRPDTLPRP | -0.658 |
| RRIRIRPPRLPRPRPRPDWLPRP | -0.166 |
| RRIRIRPPRLPRPRPRPDWTPRP | 0.0313 |
| RRIRIRPPRLPRPRPRPDYLPRP | -0.0127 |
| RRIRIRPPRLPRPRPRPEAAPRP | 0.538 |
| RRIRIRPPRLPRPRPRPECTPRP | -0.0501 |
| RRIRIRPPRLPRPRPRPEDGPRP | -0.00203 |
| RRIRIRPPRLPRPRPRPEDPPRP | 0.0426 |
| RRIRIRPPRLPRPRPRPEETPRP | -0.00208 |
| RRIRIRPPRLPRPRPRPEGDPRP | 0.574 |
| RRIRIRPPRLPRPRPRPEGIPRP | -0.0831 |
| RRIRIRPPRLPRPRPRPEHQPRP | -0.0287 |
| RRIRIRPPRLPRPRPRPEICPRP | -0.0162 |
| RRIRIRPPRLPRPRPRPEMHPRP | -0.328 |
| RRIRIRPPRLPRPRPRPENFPRP | -0.0605 |
| RRIRIRPPRLPRPRPRPENMPRP | -0.396 |

| Sequence | shrunken log2 fold change |
| --- | --- |
| RRIRIRPPRLPRPRPRPEPVPRP | 0.14 |
| RRIRIRPPRLPRPRPRPEQYPRP | -0.0765 |
| RRIRIRPPRLPRPRPRPERIPRP | 0.0552 |
| RRIRIRPPRLPRPRPRPESFPRP | -0.0048 |
| RRIRIRPPRLPRPRPRPEWDPRP | 0.054 |
| RRIRIRPPRLPRPRPRPEWSPRP | -0.26 |
| RRIRIRPPRLPRPRPRPEYYPRP | -0.198 |
| RRIRIRPPRLPRPRPRPFCQPRP | -0.412 |
| RRIRIRPPRLPRPRPRPFCYPRP | -0.514 |
| RRIRIRPPRLPRPRPRPFEHPRP | -0.321 |
| RRIRIRPPRLPRPRPRPFEMPRP | -0.22 |
| RRIRIRPPRLPRPRPRPFFYPRP | -0.416 |
| RRIRIRPPRLPRPRPRPFHIPRP | -0.127 |
| RRIRIRPPRLPRPRPRPFISPRP | -1.43 |
| RRIRIRPPRLPRPRPRPFIWPRP | -0.242 |
| RRIRIRPPRLPRPRPRPFLTPRP | -0.736 |
| RRIRIRPPRLPRPRPRPFMLPRP | -0.407 |
| RRIRIRPPRLPRPRPRPFNKPRP | -0.179 |
| RRIRIRPPRLPRPRPRPFPTPRP | 0.0232 |
| RRIRIRPPRLPRPRPRPFQSPRP | -0.469 |
| RRIRIRPPRLPRPRPRPFQYPRP | -0.0506 |
| RRIRIRPPRLPRPRPRPFRAPRP | -0.332 |
| RRIRIRPPRLPRPRPRPFRYPRP | -0.42 |
| RRIRIRPPRLPRPRPRPFSLPRP | -1.26 |
| RRIRIRPPRLPRPRPRPFTVPRP | -0.214 |
